# Source: the supplement of paper PMC7125110
# ± gives the standard error. Variants at the floor of the assay were thinned out.
# B1: glmS ribozyme (parent)
# chain: AUAAAAGCGCCAGAACUACAGAAAUGUAGUUGACGAGGAGGAGGUUUAUCGAAUUUUCGGCGGAUGCCUCCAAA
# Variants of: B1
# Assay: self-cleavage kobs at 2500 uM GlcN6P; higher = faster cleavage; RNA array
# Conditions: with glucosamine-6-phosphate
# Method in brief: (§1)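 Tiles of sequenced MiSeq chips were imaged over ~14 h at 37 °C. On them, barcoded ribozyme variants had been transcribed in situ by E. coli RNA polymerase and were tracked via a hybridised Cy3 probe while glucosamine-6-phosphate (40 μM to 10 mM) in HEPES/KCl/Mg(OAc)2 buffer flowed in. Per-tile medians, normalised to baseline and to non-cleaving reference variants, were fit to one- or two-exponential decays for kobs, and weighted Michaelis–Menten fits gave kcat and KM.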
row,Variant,self-cleavage kobs at 2500 uM GlcN6P [s⁻¹]
1,G32A A42U U46C,< 1e-05
2,A33C G63A C68A,< 1e-05
3,G32U C34A G43C C71G,< 1e-05
4,C34U C58U G60A,< 1e-05
5,U31G G41A U54C,6.89e-05 ± 2.6e-05
6,U30C U45A U55A C67U,0.00196 ± 0.00072
7,G32C C50U U69A,0.000245 ± 8.3e-05
8,A33C A39G G40U U49A,< 1e-05
9,G40U A64G C71A,0.00288 ± 0.0008
10,G32U A42C U54A,< 1e-05
11,U31A U46C A53G C70A,4.56e-05 ± 1.7e-05
12,U31G G37U U56G,< 1e-05
13,C34A A48U C50U,< 1e-05
14,G35U G60A C68U,< 1e-05
15,G35A A42U G44A,< 1e-05
16,A39C U56C U65G,8.8e-05 ± 1.3e-05
17,G35U G37U G43U G44A,< 1e-05
18,A36C G44A C70A,< 1e-05
19,G32U A36U G37C U47G A52C C67G,< 1e-05
20,U30G G32A A42U A48G,< 1e-05
21,A33C G37A G40C A42C,< 1e-05

row,Variant,self-cleavage kobs at 2500 uM GlcN6P [s⁻¹]
1,G35A A48C G51A U56G,< 1e-05
2,A39G G44A,0.00105 ± 0.00035
3,G37C C50G U54G G63U A64U,6.2e-05 ± 3e-05
4,C34U G38U A42U G63U,< 1e-05
5,A33C G35U A42G A48G,< 1e-05
6,C34U A36C A39U,< 1e-05
7,A42U G43U C50G,7.64e-05 ± 3.6e-05
8,G40U A48G C68U,< 1e-05
9,U30G A42C A52C G60U,< 1e-05
10,A39U U46G U56G,0.000873 ± 0.00027
11,U30G A33U G35C U46C,< 1e-05
12,G41U U54A U55A U56A C67U,< 1e-05
13,C34A A36G G38U U69G,4.35e-05 ± 2e-05
14,G32A U49A U65G,< 1e-05
15,C34U G35A G38U G43A,< 1e-05
16,U31G A36C G38A G40A,< 1e-05
17,C34A G41A C50G,< 1e-05
18,C34A G43A U54G,< 1e-05
19,G35C A36U G41C G51U U65G,< 1e-05
20,G38C C50A U65A,< 1e-05
21,A42U G44U U65C,< 1e-05

row,Variant,self-cleavage kobs at 2500 uM GlcN6P [s⁻¹]
1,G40U U46G A48C,< 1e-05
2,C34U G44U U49A,< 1e-05
3,A33U G43A U57C,< 1e-05
4,U31G G41U G62U G66U,< 1e-05
5,G37C G44C C67U,< 1e-05
6,A39G A42C G43A,< 1e-05
7,G40C U47G G51A,< 1e-05
8,U30G G62A A64U C71U,< 1e-05
9,G38U A48G U55C C67G,< 1e-05
10,A36C U49A U56A,< 1e-05
11,U31A A39U C70U,0.00182 ± 0.0009
12,A33G G37A A52U,< 1e-05
13,G35C A53U G60U C61U,< 1e-05
14,G38C C58G G60U,< 1e-05
15,G38A C58A C70G,6.46e-05 ± 1.7e-05
16,U30G U46C C50A A64C,< 1e-05
17,G37U U45G U65G,< 1e-05
18,A39C A53U C67A,6.25e-05 ± 1.6e-05
19,A36G A39U G62U,< 1e-05
20,U31G U55A C67A,0.00299 ± 0.00085
21,A42G U65A G66U,7.25e-05 ± 2.4e-05

row,Variant,self-cleavage kobs at 2500 uM GlcN6P [s⁻¹]
1,G38C G41C C61A C71G,< 1e-05
2,A33C G41C U69G,< 1e-05
3,G35A A36U G44A A52G C61G C67A,< 1e-05
4,A39G A42U C68U,0.000999 ± 0.00036
5,A33G G37A G62C,< 1e-05
6,A33G A42U U47A A53G,< 1e-05
7,G35C A42U U56C C68G,< 1e-05
8,A36C G40U U55A U56G C70G,< 1e-05
9,G32U G37C A42C,< 1e-05
10,A39C G60C C67G,< 1e-05
11,G32U U45C,1.98e-05 ± 7.1e-06
12,G35C C50A C67G,< 1e-05
13,G40C C70G C71U,7.87e-05 ± 1.6e-05
14,C34U G35U G62C,< 1e-05
15,U31G G40U G60A,< 1e-05
16,G35U U57A U69A,< 1e-05
17,G35C U46A C67G,< 1e-05
18,G38C U46C U49A,< 1e-05
19,A36G U65C C68G,< 1e-05
20,U31G C61A C67A,0.000101 ± 2.8e-05

# Variants of: B1
# Assay: self-cleavage kobs at 10000 uM GlcN6P; higher = faster cleavage; RNA array
# Conditions: with glucosamine-6-phosphate
# Method in brief: as §1
row,Variant,self-cleavage kobs at 10000 uM GlcN6P [s⁻¹]
1,G32U C34A G43C C71G,< 1e-05
2,A39G G44A,0.000926 ± 0.00033
3,G35C A36U G41C G51U U65G,< 1e-05
4,G32U U45C,4.42e-05 ± 5.9e-06
